Measured values published in paper PMC10945824 (Proceedings of the National Academy of Sciences of the …, 2024).
Like-named read-outs stand apart in the source and are kept apart here.

What was measured:
cryo-EM structure = biological target: the molecule itself; assay: cryo-EM structure
negative-stain TEM [1] = biological target: the molecule itself; assay: negative-stain TEM
negative-stain TEM [2] = biological target: the molecule itself; assay: negative-stain TEM; remark: listed apart in the source

Protein	stoichiometry N (cryo-EM structure)	binding result (negative-stain TEM [1])	binding result (negative-stain TEM [2])
human paraneoplastic antigen Ma2 (PNMA2), recombinant, wild type (natural protein, UniProt Q9UL42 1-364, looked up) MALALLEDWCRIMSVDEQKSLMVTGIPADFEEAEIQEVLQETLKSLGRYRLLGKIFRKQENANAVLLELLEDTDVSAIPSEVQGKGGVWKVIFKTPNQDTEFLERLNLFLEKEGQTVSGMFRALGQEGVSPATVPCISPELLAHLLGQAMAHAPQPLLPMRYRKLRVFSGSAVPAPEEESFEVWLEQATEIVKEWPVTEAEKKRWLAESLRGPALDLMHIVQADNPSISVEECLEAFKQVFGSLESRRTAQVRYLKTYQEEGEKVSAYVLRLETLLRRAVEKRAIPRRIADQVRLEQVMAGATLNQMLWCRLRELKDQGPPPSFLELMKVIREEEEEEASFENESIEEPEERDGYGRWNHEGDD	60	binds	–
HA-tagged human PNMA2 secreted by HEK293FT cells (natural protein, UniProt Q9UL42 1-364, looked up) MALALLEDWCRIMSVDEQKSLMVTGIPADFEEAEIQEVLQETLKSLGRYRLLGKIFRKQENANAVLLELLEDTDVSAIPSEVQGKGGVWKVIFKTPNQDTEFLERLNLFLEKEGQTVSGMFRALGQEGVSPATVPCISPELLAHLLGQAMAHAPQPLLPMRYRKLRVFSGSAVPAPEEESFEVWLEQATEIVKEWPVTEAEKKRWLAESLRGPALDLMHIVQADNPSISVEECLEAFKQVFGSLESRRTAQVRYLKTYQEEGEKVSAYVLRLETLLRRAVEKRAIPRRIADQVRLEQVMAGATLNQMLWCRLRELKDQGPPPSFLELMKVIREEEEEEASFENESIEEPEERDGYGRWNHEGDD	–	–	binds
